Measured values published in patent US6036923.

Columns and labels:
[1] = test system: T4 DNA polymerase (3'-5' exonuclease) (Bacteriophage T4?); experiment: cleavage_in_vitro; settings: atmospheric pressure, room temperature
Lambda exonuclease = experiment: cleavage_in_vitro; settings: rate at 30,000 psi, 20 C; 89 mM glycine-KOH pH 9.4, 3.3 mM MgCl2 assay buffer; reversible pressure inhibition

Substance | activity (bp digested in 20 min) [1] | activity (Lambda exonuclease)
DNA size markers (lambda DNA) | 100 | 
Lambda DNA HindIII digest fragments |  | 0.1 bases/s
